This note sets out measurements from US20180371093A1 (Novartis, published 2018).

For test [1], the target named is T1, Programmed Death 1 (PD-1) (UniProt Q15116 25-167, limits assumed). As to the kind of experiment: rank among the 16 humanized clones by FACS binding data. On the technique in general: In flow cytometry, cells or beads pass a laser one at a time.
Test [2] addresses T1, Programmed Death 1 (PD-1). Description: rank in competition binding against labelled murine mAb BAP049, 1st experiment.
Test [3] addresses T1, Programmed Death 1 (PD-1). Description: rank in competition binding against labelled murine mAb BAP049, 2nd experiment.
In test [4] the target is T1, Programmed Death 1 (PD-1). Description: FACS ligand blocking: binding of PD-L1-Ig to PD-1 at increasing mAb concentration (legend paragraph 212 names 'PD-L1-Ig and PD-L2-Ig' for FIG. 8A).

T1 sequence (Q15116 25-167 limits assumed): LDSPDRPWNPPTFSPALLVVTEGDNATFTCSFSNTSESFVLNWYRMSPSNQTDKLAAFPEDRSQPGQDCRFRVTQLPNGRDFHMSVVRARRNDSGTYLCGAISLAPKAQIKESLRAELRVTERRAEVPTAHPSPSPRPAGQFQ

B1: BAP049-hum02 (antibody, human IgG4 S228P, kappa, V domains shown)
VH: EVQLVQSGAEVKKPGESLRISCKGSGYTFTTYWMHWVRQATGQGLEWMGNIYPGTGGSNFDEKFKNRVTITADKSTSTAYMELSSLRSEDTAVYYCTRWTTGTGAYWGQGTTVTVSS
VL: DIQMTQSPSSLSASVGDRVTITCKSSQSLLDSGNQKNFLTWYQQKPGQAPRLLIYWASTRESGIPPRFSGSGYGTDFTLTINNIESEDAAYYFCQNDYSYPYTFGQGTKVEIKR
notes: also called clone 2
With B1, the “Ranking FACS data” value in test [1] was determined as 6 rank. Further, the “Competition Binding 1st exp. (rank)” value in test [2] was 3 rank. For the same molecule, the “Competition Binding 2nd exp. (rank)” value in test [3] was 2 rank.

B2: BAP049-hum12 (antibody, human IgG4 S228P, kappa, V domains shown)
VH: EVQLVQSGAEVKKPGESLRISCKGSGYTFTTYWMHWVRQATGQGLEWMGNIYPGTGGSNFDEKFKNRVTITADKSTSTAYMELSSLRSEDTAVYYCTRWTTGTGAYWGQGTTVTVSS
VL: DIQMTQSPSSLSASVGDRVTITCKSSQSLLDSGNQKNFLTWYLQKPGQSPQLLIYWASTRESGVPSRFSGSGSGTDFTFTISSLEAEDAATYYCQNDYSYPYTFGQGTKVEIKR
notes: also called clone 12
With B2, the “Ranking FACS data” value in test [1] is 3 rank. Moreover, the “Competition Binding 1st exp. (rank)” value in test [2] worked out at 8 rank. Besides, in test [3], the “Competition Binding 2nd exp. (rank)” value was 16 rank.

B3: Chi mAb (Tyr) (antibody, human IgG4 S228P, kappa, V domains shown)
VH: QVQLQQSGSELVRPGASVKLSCKASGYTFTTYWMHWVRQRPGQGLEWIGNIYPGTGGSNFDEKFKNRTSLTVDTSSTTAYMHLASLTSEDSAVYYCTRWTTGTGAYWGQGTTVTVSS
VL: DIVMTQSPSSLTVTAGEKVTMSCKSSQSLLDSGNQKNFLTWYQQKPGQPPKLLIFWASTRESGVPDRFTGSGSVTDFTLTISSVQAEDLAVYYCQNDYSYPYTFGQGTKVEIKR
notes: also called BAP049-chi-Y; Chi (Tyr)
In the case of B3, the “IC50 (read off the curve)” value in test [4] is approximately 0.9 µg/mL.

B4: Mu mAb (antibody, V domains shown)
VH: QVQLQQSGSELVRPGASVKLSCKASGYTFTTYWMHWVRQRPGQGLEWIGNIYPGTGGSNFDEKFKNRTSLTVDTSSTTAYMHLASLTSEDSAVYYCTRWTTGTGAYWGQGTLVTVSA
VL: DIVMTQSPSSLTVTAGEKVTMSCKSSQSLLDSGNQKNFLTWYQQKPGQPPKLLIFWASTRESGVPDRFTGSGSVTDFTLTISSVQAEDLAVYYCQNDYSYPCTFGGGTKLEIK
notes: Unlabelled when its concentration is varied; also called murine anti-PD-1 mAb BAP049; Mu mAb control
On to B4, for which, in test [4], the “IC50 (read off the curve)” value was approximately 0.7 µg/mL.

B5: BAP049-hum16 (antibody, human IgG4 S228P, kappa, V domains shown)
VH: EVQLVQSGAEVKKPGESLRISCKGSGYTFTTYWMHWVRQAPGQGLEWMGNIYPGTGGSNFDEKFKNRFTISRDNSKNTLYLQMNSLRAEDTAVYYCTRWTTGTGAYWGQGTTVTVSS
VL: EIVLTQSPDFQSVTPKEKVTITCKSSQSLLDSGNQKNFLTWYQQKPGQAPRLLIYWASTRESGVPSRFSGSGSGTDFTFTISSLEAEDAATYYCQNDYSYPYTFGQGTKVEIKR
notes: also called clone 16
With B5, the “Ranking FACS data” value in test [1] was 15 rank. Moreover, in test [2], the “Competition Binding 1st exp. (rank)” value came to 16 rank. Also, the “Competition Binding 2nd exp. (rank)” value in test [3] turned out to be 15 rank.

B6: BAP049-hum03 (antibody, human IgG4 S228P, kappa, V domains shown)
VH: EVQLVQSGAEVKKPGESLRISCKGSGYTFTTYWMHWIRQSPSRGLEWLGNIYPGTGGSNFDEKFKNRFTISRDNSKNTLYLQMNSLRAEDTAVYYCTRWTTGTGAYWGQGTTVTVSS
VL: DIQMTQSPSSLSASVGDRVTITCKSSQSLLDSGNQKNFLTWYQQKPGQAPRLLIYWASTRESGIPPRFSGSGYGTDFTLTINNIESEDAAYYFCQNDYSYPYTFGQGTKVEIKR
notes: also called clone 3
On to B6, for which the “Ranking FACS data” value in test [1] amounted to 7 rank. Also, the “Competition Binding 1st exp. (rank)” value in test [2] was 8 rank. Also, the “Competition Binding 2nd exp. (rank)” value in test [3] was 14 rank.

B7: BAP049-hum14 (antibody, human IgG4 S228P, kappa)
heavy chain: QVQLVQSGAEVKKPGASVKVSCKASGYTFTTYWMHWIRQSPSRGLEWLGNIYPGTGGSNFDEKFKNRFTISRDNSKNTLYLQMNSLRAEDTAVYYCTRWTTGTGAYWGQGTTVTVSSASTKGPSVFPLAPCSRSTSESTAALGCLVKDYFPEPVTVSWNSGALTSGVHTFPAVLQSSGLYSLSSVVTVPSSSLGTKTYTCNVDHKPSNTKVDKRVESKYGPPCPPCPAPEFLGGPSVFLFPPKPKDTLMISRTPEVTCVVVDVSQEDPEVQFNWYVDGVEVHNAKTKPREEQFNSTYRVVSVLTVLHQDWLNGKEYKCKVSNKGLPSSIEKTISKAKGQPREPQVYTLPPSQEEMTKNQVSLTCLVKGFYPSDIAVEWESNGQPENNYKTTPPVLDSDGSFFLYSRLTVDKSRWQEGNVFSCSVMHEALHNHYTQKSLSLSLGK
light chain: EIVLTQSPATLSLSPGERATLSCKSSQSLLDSGNQKNFLTWYQQKPGQAPRLLIYWASTRESGVPSRFSGSGSGTDFTFTISSLEAEDAATYYCQNDYSYPYTFGQGTKVEIKRTVAAPSVFIFPPSDEQLKSGTASVVCLLNNFYPREAKVQWKVDNALQSGNSQESVTEQDSKDSTYSLSSTLTLSKADYEKHKVYACEVTHQGLSSPVTKSFNRGEC
notes: also called clone 14
Turning to B7, the “Ranking FACS data” value in test [1] was 16 rank. In addition, the “Competition Binding 1st exp. (rank)” value in test [2] worked out at 7 rank. Also, the “Competition Binding 2nd exp. (rank)” value in test [3] stood at 15 rank.

B8: BAP049-hum08 (antibody, human IgG4 S228P, kappa)
heavy: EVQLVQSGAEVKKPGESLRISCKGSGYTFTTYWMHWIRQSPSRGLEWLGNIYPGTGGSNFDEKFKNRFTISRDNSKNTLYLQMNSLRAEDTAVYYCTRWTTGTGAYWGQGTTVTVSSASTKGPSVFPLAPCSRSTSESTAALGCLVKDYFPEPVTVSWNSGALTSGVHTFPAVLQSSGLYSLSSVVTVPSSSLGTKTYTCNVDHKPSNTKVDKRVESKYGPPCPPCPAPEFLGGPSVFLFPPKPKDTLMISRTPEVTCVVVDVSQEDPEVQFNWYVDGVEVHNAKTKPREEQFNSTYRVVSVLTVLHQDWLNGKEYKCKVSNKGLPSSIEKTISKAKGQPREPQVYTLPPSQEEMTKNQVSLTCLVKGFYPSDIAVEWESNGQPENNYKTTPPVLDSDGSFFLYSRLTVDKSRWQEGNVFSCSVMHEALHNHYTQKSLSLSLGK
light: EIVLTQSPDFQSVTPKEKVTITCKSSQSLLDSGNQKNFLTWYQQKPGQAPRLLIYWASTRESGVPSRFSGSGSGTDFTFTISSLEAEDAATYYCQNDYSYPYTFGQGTKVEIKRTVAAPSVFIFPPSDEQLKSGTASVVCLLNNFYPREAKVQWKVDNALQSGNSQESVTEQDSKDSTYSLSSTLTLSKADYEKHKVYACEVTHQGLSSPVTKSFNRGEC
notes: Humanized mAb
As for B8, in test [1], the “Ranking FACS data” value turned out to be 7 rank. The “Competition Binding 1st exp. (rank)” value in test [2] was 7 rank. In test [3], the “Competition Binding 2nd exp. (rank)” value worked out at 4 rank.

B9: BAP049-hum04 (antibody, human IgG4 S228P, kappa, V domains shown)
VH: EVQLVQSGAEVKKPGESLRISCKGSGYTFTTYWMHWIRQSPSRGLEWLGNIYPGTGGSNFDEKFKNRFTISRDNSKNTLYLQMNSLRAEDTAVYYCTRWTTGTGAYWGQGTTVTVSS
VL: EIVLTQSPATLSLSPGERATLSCKSSQSLLDSGNQKNFLTWYQQKPGKAPKLLIYWASTRESGVPSRFSGSGSGTDFTFTISSLQPEDIATYYCQNDYSYPYTFGQGTKVEIKR
notes: also called clone 4
For B9, the “Ranking FACS data” value in test [1] was determined as 14 rank. Besides, the “Competition Binding 1st exp. (rank)” value in test [2] was found to be 15 rank. In addition, in test [3], the “Competition Binding 2nd exp. (rank)” value is 15 rank.

B10: BAP049-hum15 (antibody, human IgG4 S228P, kappa)
heavy chain: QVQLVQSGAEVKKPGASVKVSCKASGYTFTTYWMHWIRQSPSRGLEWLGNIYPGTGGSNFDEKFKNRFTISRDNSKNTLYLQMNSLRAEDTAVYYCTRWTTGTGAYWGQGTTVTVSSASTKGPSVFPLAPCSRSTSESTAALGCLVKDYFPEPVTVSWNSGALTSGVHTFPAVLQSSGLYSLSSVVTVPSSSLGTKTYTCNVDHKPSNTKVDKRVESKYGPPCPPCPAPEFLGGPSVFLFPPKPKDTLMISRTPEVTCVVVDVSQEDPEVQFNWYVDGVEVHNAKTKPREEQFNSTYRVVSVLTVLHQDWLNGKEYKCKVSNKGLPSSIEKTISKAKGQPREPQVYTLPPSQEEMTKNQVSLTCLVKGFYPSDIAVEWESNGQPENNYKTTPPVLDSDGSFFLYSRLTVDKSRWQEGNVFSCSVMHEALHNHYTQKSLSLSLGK
light chain: EIVLTQSPDFQSVTPKEKVTITCKSSQSLLDSGNQKNFLTWYQQKPGQAPRLLIYWASTRESGVPSRFSGSGSGTDFTFTISSLEAEDAATYYCQNDYSYPYTFGQGTKVEIKRTVAAPSVFIFPPSDEQLKSGTASVVCLLNNFYPREAKVQWKVDNALQSGNSQESVTEQDSKDSTYSLSSTLTLSKADYEKHKVYACEVTHQGLSSPVTKSFNRGEC
notes: also called clone 15
B10: in test [1], the “Ranking FACS data” value is 6 rank. For the same molecule, the “Competition Binding 1st exp. (rank)” value in test [2] was determined as 7 rank. The “Competition Binding 2nd exp. (rank)” value in test [3] stood at 15 rank.

B11: BAP049-hum11 (antibody, human IgG4 S228P, kappa)
heavy: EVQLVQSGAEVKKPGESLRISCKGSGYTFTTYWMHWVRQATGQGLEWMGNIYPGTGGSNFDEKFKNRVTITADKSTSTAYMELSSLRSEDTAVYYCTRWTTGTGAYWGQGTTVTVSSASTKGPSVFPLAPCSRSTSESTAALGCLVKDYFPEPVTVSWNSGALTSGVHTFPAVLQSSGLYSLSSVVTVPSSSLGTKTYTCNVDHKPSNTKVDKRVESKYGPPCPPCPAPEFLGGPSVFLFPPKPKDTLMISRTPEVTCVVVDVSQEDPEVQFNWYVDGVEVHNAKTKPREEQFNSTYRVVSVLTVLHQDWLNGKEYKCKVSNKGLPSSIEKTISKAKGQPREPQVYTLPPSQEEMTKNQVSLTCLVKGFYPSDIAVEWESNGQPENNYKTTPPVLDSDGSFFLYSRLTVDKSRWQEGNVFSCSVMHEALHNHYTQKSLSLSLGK
light: EIVLTQSPATLSLSPGERATLSCKSSQSLLDSGNQKNFLTWYQQKPGQAPRLLIYWASTRESGVPSRFSGSGSGTDFTFTISSLEAEDAATYYCQNDYSYPYTFGQGTKVEIKRTVAAPSVFIFPPSDEQLKSGTASVVCLLNNFYPREAKVQWKVDNALQSGNSQESVTEQDSKDSTYSLSSTLTLSKADYEKHKVYACEVTHQGLSSPVTKSFNRGEC
notes: Humanized mAb
For the molecule B11, the “Ranking FACS data” value in test [1] is 6 rank. Further, in test [2], the “Competition Binding 1st exp. (rank)” value came to 4 rank. Besides, the “Competition Binding 2nd exp. (rank)” value in test [3] was more than 4 rank.

B12: BAP049-hum01 (antibody, human IgG4 S228P, kappa, V domains shown)
VH: EVQLVQSGAEVKKPGESLRISCKGSGYTFTTYWMHWVRQATGQGLEWMGNIYPGTGGSNFDEKFKNRVTITADKSTSTAYMELSSLRSEDTAVYYCTRWTTGTGAYWGQGTTVTVSS
VL: EIVLTQSPATLSLSPGERATLSCKSSQSLLDSGNQKNFLTWYQQKPGQAPRLLIYWASTRESGVPSRFSGSGSGTEFTLTISSLQPDDFATYYCQNDYSYPYTFGQGTKVEIKR
notes: Humanized mAb
Consider B12, for which the “Ranking FACS data” value in test [1] was determined as 2 rank. Besides, the “Competition Binding 1st exp. (rank)” value in test [2] was 7 rank. For the same molecule, in test [3], the “Competition Binding 2nd exp. (rank)” value was 2 rank. Besides, the “IC50 (read off the curve)” value in test [4] was approximately 1 µg/mL.

B13: BAP049-hum09 (antibody, human IgG4 S228P, kappa)
heavy: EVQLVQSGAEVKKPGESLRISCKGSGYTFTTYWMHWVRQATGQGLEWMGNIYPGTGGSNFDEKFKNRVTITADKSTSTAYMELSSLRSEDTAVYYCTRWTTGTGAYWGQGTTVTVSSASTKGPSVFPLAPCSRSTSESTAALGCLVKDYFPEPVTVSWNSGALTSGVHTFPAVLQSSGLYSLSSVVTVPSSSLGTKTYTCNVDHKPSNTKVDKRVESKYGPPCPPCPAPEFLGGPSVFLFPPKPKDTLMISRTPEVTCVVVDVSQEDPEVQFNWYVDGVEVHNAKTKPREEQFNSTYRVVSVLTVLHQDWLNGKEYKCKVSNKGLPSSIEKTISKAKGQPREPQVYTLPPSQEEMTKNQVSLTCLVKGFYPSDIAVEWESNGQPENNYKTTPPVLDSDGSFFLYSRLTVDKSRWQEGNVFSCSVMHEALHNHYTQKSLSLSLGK
light: EIVLTQSPDFQSVTPKEKVTITCKSSQSLLDSGNQKNFLTWYQQKPGQAPRLLIYWASTRESGVPSRFSGSGSGTDFTFTISSLEAEDAATYYCQNDYSYPYTFGQGTKVEIKRTVAAPSVFIFPPSDEQLKSGTASVVCLLNNFYPREAKVQWKVDNALQSGNSQESVTEQDSKDSTYSLSSTLTLSKADYEKHKVYACEVTHQGLSSPVTKSFNRGEC
notes: Humanized mAb
In the case of B13, the “Ranking FACS data” value in test [1] is 7 rank. In addition, the “Competition Binding 1st exp. (rank)” value in test [2] worked out at 2 rank. Further, the “Competition Binding 2nd exp. (rank)” value in test [3] is 4 rank.

B14: BAP049-hum06 (antibody, human IgG4 S228P, kappa)
heavy chain: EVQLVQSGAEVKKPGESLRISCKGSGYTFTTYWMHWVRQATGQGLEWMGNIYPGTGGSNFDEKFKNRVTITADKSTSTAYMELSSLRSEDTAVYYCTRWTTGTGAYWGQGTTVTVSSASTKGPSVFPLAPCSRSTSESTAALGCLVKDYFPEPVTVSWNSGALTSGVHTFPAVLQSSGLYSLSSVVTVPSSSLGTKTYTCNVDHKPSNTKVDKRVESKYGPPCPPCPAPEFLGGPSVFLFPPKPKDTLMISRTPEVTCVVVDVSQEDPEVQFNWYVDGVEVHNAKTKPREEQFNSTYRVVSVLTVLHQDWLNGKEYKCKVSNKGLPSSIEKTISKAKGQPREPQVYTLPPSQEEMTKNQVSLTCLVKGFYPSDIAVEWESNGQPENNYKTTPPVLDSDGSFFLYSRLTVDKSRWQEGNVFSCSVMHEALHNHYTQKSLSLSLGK
light chain: DIVMTQTPLSLPVTPGEPASISCKSSQSLLDSGNQKNFLTWYQQKPGQAPRLLIYWASTRESGVPSRFSGSGSGTDFTFTISSLEAEDAATYYCQNDYSYPYTFGQGTKVEIKRTVAAPSVFIFPPSDEQLKSGTASVVCLLNNFYPREAKVQWKVDNALQSGNSQESVTEQDSKDSTYSLSSTLTLSKADYEKHKVYACEVTHQGLSSPVTKSFNRGEC
notes: also called clone 6
Regarding B14, in test [1], the “Ranking FACS data” value worked out at 1 rank. Moreover, in test [2], the “Competition Binding 1st exp. (rank)” value is 7 rank. The “Competition Binding 2nd exp. (rank)” value in test [3] came to 3 rank.

B15: BAP049-hum07 (antibody, human IgG4 S228P, kappa)
heavy chain: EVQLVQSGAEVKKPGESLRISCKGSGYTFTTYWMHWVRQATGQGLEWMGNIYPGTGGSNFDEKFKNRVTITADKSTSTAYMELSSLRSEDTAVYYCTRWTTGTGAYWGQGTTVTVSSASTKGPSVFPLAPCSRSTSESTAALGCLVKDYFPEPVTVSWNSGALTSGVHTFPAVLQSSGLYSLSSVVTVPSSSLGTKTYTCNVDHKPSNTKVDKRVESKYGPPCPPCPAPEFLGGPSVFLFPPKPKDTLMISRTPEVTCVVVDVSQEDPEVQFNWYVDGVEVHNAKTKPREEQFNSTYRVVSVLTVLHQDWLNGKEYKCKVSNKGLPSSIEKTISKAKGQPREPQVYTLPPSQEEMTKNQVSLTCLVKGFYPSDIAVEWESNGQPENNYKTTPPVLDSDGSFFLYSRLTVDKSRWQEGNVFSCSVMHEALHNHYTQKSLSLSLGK
light chain: EIVLTQSPATLSLSPGERATLSCKSSQSLLDSGNQKNFLTWYQQKPGKAPKLLIYWASTRESGVPSRFSGSGSGTDFTFTISSLEAEDAATYYCQNDYSYPYTFGQGTKVEIKRTVAAPSVFIFPPSDEQLKSGTASVVCLLNNFYPREAKVQWKVDNALQSGNSQESVTEQDSKDSTYSLSSTLTLSKADYEKHKVYACEVTHQGLSSPVTKSFNRGEC
notes: also called clone 7
Turning to B15, the “Ranking FACS data” value in test [1] worked out at 4 rank. Also, in test [2], the “Competition Binding 1st exp. (rank)” value was determined as 7 rank. For the same molecule, the “Competition Binding 2nd exp. (rank)” value in test [3] was more than 4 rank.

B16: BAP049-hum05 (antibody, human IgG4 S228P, kappa, V domains shown)
VH: EVQLVQSGAEVKKPGESLRISCKGSGYTFTTYWMHWVRQATGQGLEWMGNIYPGTGGSNFDEKFKNRVTITADKSTSTAYMELSSLRSEDTAVYYCTRWTTGTGAYWGQGTTVTVSS
VL: EIVLTQSPATLSLSPGERATLSCKSSQSLLDSGNQKNFLTWYQQKPGKAPKLLIYWASTRESGVPSRFSGSGSGTDFTFTISSLQPEDIATYYCQNDYSYPYTFGQGTKVEIKR
notes: Humanized mAb
Consider B16, for which the “Ranking FACS data” value in test [1] stood at 5 rank. In test [2], the “Competition Binding 1st exp. (rank)” value stood at 5 rank. In addition, the “Competition Binding 2nd exp. (rank)” value in test [3] is more than 4 rank. In test [4], the “IC50 (read off the curve)” value was approximately 1 µg/mL.

B17: BAP049-hum13 (antibody, human IgG4 S228P, kappa)
heavy chain: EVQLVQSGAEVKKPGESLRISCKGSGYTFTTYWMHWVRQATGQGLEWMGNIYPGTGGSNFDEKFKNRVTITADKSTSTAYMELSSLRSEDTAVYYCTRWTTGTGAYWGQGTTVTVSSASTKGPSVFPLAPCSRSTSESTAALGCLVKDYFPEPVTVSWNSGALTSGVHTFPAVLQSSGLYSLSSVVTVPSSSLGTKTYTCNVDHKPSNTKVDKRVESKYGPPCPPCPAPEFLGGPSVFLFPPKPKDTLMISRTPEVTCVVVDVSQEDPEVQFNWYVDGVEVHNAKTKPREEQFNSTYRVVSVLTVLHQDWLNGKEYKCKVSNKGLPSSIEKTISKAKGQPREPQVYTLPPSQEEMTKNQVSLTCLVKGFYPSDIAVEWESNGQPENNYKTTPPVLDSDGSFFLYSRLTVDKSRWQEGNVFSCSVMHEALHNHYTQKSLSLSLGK
light chain: DVVMTQSPLSLPVTLGQPASISCKSSQSLLDSGNQKNFLTWYQQKPGKAPKLLIYWASTRESGVPSRFSGSGSGTDFTFTISSLEAEDAATYYCQNDYSYPYTFGQGTKVEIKRTVAAPSVFIFPPSDEQLKSGTASVVCLLNNFYPREAKVQWKVDNALQSGNSQESVTEQDSKDSTYSLSSTLTLSKADYEKHKVYACEVTHQGLSSPVTKSFNRGEC
notes: also called clone 13
In the case of B17, in test [1], the “Ranking FACS data” value was 6 rank. The “Competition Binding 1st exp. (rank)” value in test [2] worked out at 1 rank. Also, the “Competition Binding 2nd exp. (rank)” value in test [3] was determined as 1 rank.
